Assays:
[1] = target: Porcine gastric mucin (PGM) (porcine); assay: ITC; ITC-200 at 37 °C, pH 7.4; PGM solution (40 μM) in the 200 μL cell, KTN or KOS solution (1% w/v) in the syringe
[2] = target: Porcine gastric mucin (PGM) (porcine); assay: ITC; ITC-200 at 37 °C, pH 4.5; PGM solution (40 μM) in the 200 μL cell, KTN or KOS solution (1% w/v) in the syringe
[3] = target: Porcine gastric mucin (PGM) (porcine); assay: ITC; ITC-200 at 37 °C, pH 7.4; PGM solution (40 μM) in the 200 μL cell, KTN or KOS solution (1% w/v) in the syringe; remark: listed apart in the source
[4] = target: Porcine gastric mucin (PGM) (porcine); assay: as above; remark: listed apart in the source

Row | Ka [1] | dH [1] | stoichiometry N [1] | Ka [2] | dH [2] | stoichiometry N [2] | Ka [3] | dH [4] | Substance
1 | 10700 M⁻¹ | -3.47 kcal/mol | 1.5 | 398000 M⁻¹ | -2.41 kcal/mol | 1.23 | – | – | kerateine (reduced keratin, KTN)
2 | 4140 M⁻¹ | -61.1 kcal/mol | 1.27 | 15500 M⁻¹ | -4.25 kcal/mol | 1.15 | 41400 M⁻¹ | 61.1 kcal/mol | keratose (oxidized keratin, KOS)

— article PMC5858146
